The record followed here is patent US20030099656A1 (published 2003).

For experiment [1], the target named is T1, ClfA on S. aureus strain Newman cells (wild type) (Staphylococcus aureus strain Newman, UniProt Q53653 40-899).
T1 construct: whole, on cells; also called Newman WT; Newman-WT
Description: flow cytometry, overnight culture.
Description: (§1) As well, Newman ClfA::emr (ClfA knockout) and NewmanSpa::kan (Protein A knockout) were analyzed in the same manner as specificity controls. Following incubation with antibody, bacterial cells were incubated with Goat-F_{(ab′)2}-Anti-Mouse-F_{(ab′)2}-FITC which served as the detection antibody. […] For each bacterial strain, 10,000 events were collected and measured.

In experiment [2] the target is T2, ClfA on S. aureus strain 4046 USA cells (Staphylococcus aureus strain 4046).
T2 construct: whole, on cells
Put plainly: flow cytometry, overnight culture.
Description: as §1

For experiment [3], the target named is T3, ClfA on S. aureus strain 49 Europe cells (Staphylococcus aureus strain 49).
T3 construct: whole, on cells
Put plainly: flow cytometry, overnight culture.
Description: as §1

Experiment [4] has as its target T4, ClfA on S. aureus strain 397 SAL6 cells (Staphylococcus aureus strain 397 Sal 6).
T4 construct: whole, on cells
Description: flow cytometry, overnight culture.
Description: as §1

Experiment [5] deals with T5, ClfA on S. aureus strain 560 SAL 1 cells (Staphylococcus aureus strain 560 Sal 1).
T5 construct: whole, on cells
Put plainly: flow cytometry, overnight culture.
Description: as §1

Experiment [6] deals with T6, ClfA on S. aureus strain 206 SAL5 cells (Staphylococcus aureus strain 206 Sal5).
T6 construct: whole, on cells
Description: flow cytometry, overnight culture.
Description: as §1

For experiment [7], the target named is T7, ClfA on S. aureus strain 203 Singapore cells (Staphylococcus aureus strain 203).
T7 construct: whole, on cells
Put plainly: flow cytometry, overnight culture.
Description: as §1

For experiment [8], the target named is T8, ClfA on S. aureus strain 189 Japan cells (Staphylococcus aureus strain 189).
T8 construct: whole, on cells
Put plainly: flow cytometry, overnight culture.
Description: as §1

Experiment [9] addresses T9, ClfA on S. aureus strain 203 SAL2 cells (Staphylococcus aureus strain 203 Sal 2).
T9 construct: whole, on cells
Put plainly: flow cytometry, overnight culture.
Description: as §1

Experiment [10] concerns the target T10, ClfA on S. aureus strain 67-0 cells (MRSA) (Staphylococcus aureus strain 67-0).
T10 construct: whole, on cells
Description: flow cytometry, overnight culture.
Description: as §1

The target of experiment [11] is T11, ClfA on S. aureus strain 451 SAL4 cells (Staphylococcus aureus strain 451 Sal 4).
T11 construct: whole, on cells
Put plainly: flow cytometry, overnight culture.
Description: as §1

Experiment [12] deals with T1, ClfA on S. aureus strain Newman cells …. Description: flow cytometry, 3 hr culture.
Description: as §1
The target of experiment [13] is T2, ClfA on S. aureus strain 4046 USA cells. Description: flow cytometry, 3 hr culture.
Description: as §1
In experiment [14] the target is T3, ClfA on S. aureus strain 49 Europe cells. Description: flow cytometry, 3 hr culture.
Description: as §1
For experiment [15], the target named is T4, ClfA on S. aureus strain 397 SAL6 cells. Put plainly: flow cytometry, 3 hr culture.
Description: as §1
Experiment [16] addresses T5, ClfA on S. aureus strain 560 SAL 1 cells. Put plainly: flow cytometry, 3 hr culture.
Description: as §1
In experiment [17] the target is T6, ClfA on S. aureus strain 206 SAL5 cells. Put plainly: flow cytometry, 3 hr culture.
Description: as §1
Experiment [18] has as its target T7, ClfA on S. aureus strain 203 Singapore …. Description: flow cytometry, 3 hr culture.
Description: as §1
Experiment [19] concerns the target T8, ClfA on S. aureus strain 189 Japan cells. Description: flow cytometry, 3 hr culture.
Description: as §1
In experiment [20] the target is T9, ClfA on S. aureus strain 203 SAL2 cells. Description: flow cytometry, 3 hr culture.
Description: as §1
In experiment [21] the target is T10, ClfA on S. aureus strain 67-0 cells …. Put plainly: flow cytometry, 3 hr culture.
Description: as §1
Experiment [22] addresses T11, ClfA on S. aureus strain 451 SAL4 cells. Description: flow cytometry, 3 hr culture.
Description: as §1
The next experiment addresses T12, SdrG (UniProt Q9KI13 50-597).
T12 sequence (looked up): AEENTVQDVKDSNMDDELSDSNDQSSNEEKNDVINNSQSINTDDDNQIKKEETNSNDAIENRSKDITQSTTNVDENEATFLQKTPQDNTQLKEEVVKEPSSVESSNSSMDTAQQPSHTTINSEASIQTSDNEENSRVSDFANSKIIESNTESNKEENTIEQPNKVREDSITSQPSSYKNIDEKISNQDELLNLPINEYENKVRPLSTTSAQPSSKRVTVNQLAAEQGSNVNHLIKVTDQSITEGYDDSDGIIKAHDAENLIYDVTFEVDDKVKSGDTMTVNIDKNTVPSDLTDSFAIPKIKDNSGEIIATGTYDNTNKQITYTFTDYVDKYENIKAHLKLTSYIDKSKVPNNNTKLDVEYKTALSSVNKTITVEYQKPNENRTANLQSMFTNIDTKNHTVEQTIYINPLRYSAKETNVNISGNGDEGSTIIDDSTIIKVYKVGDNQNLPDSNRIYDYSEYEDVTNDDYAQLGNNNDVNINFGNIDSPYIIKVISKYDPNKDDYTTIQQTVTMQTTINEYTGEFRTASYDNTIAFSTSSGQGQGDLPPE
Put plainly: ELISA, SdrG.

Experiment [23] concerns the target T1, ClfA on S. aureus strain Newman cells …. Put plainly: flow cytometry on S. aureus cells (FIG. 3).

T1 sequence (Q53653 40-899): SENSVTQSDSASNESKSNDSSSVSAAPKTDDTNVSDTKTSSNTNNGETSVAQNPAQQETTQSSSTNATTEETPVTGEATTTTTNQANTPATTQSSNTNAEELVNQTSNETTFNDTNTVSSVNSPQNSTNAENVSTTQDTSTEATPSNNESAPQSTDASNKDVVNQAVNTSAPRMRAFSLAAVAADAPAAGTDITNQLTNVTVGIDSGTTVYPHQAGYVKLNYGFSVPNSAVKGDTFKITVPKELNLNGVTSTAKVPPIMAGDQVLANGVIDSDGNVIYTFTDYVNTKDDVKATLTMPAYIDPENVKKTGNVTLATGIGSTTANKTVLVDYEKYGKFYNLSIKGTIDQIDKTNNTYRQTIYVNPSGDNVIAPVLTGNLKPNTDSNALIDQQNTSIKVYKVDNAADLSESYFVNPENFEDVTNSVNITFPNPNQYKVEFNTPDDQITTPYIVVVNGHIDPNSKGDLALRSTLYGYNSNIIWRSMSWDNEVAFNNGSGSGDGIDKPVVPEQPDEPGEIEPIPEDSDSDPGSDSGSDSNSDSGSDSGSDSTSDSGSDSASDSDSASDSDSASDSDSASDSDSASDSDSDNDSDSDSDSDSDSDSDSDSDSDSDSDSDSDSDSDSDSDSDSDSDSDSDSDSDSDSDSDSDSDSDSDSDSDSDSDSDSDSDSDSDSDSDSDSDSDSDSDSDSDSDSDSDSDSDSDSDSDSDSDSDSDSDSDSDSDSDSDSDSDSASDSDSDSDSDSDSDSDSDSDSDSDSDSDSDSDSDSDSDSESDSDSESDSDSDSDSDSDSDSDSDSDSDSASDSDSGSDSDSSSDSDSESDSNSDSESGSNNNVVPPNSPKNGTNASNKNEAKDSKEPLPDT

B1: ClfA monoclonal antibody 12-9 (antibody, V domains shown)
VH: QVQLKESGPGLVAPSQSLSITCAISGFSLSRYSVHWVRQPPGKGLEWLGMIWGGGNTDYNSALKSRLSISKDNSKSQVFLKMNSLQTDDTAMYYCARKGEFYYGYDGFVYWGQGTLVTVSA
VL: NIMMTQSPSSLAVSAGEKVTMSCKSSQSVLYSSNQKNYLAWYQQKPGQSPKLLIYWASTRESGVPDRFTGSGSGTDFTLTISSVQAEDLAVYYCHQYLSSYTFGGGTKLEIK
notes: also called F12-9; Mab 12-9
Regarding B1, the “Fluorescence Intensity (Geometric Mean)” value in experiment [1] was found to be 44.3; in experiment [2], 23.5; in experiment [3], 11.3; in experiment [4] it was 62.1; in [5], 36.1; in experiment [6] it was 33.5. Further, the “Fluorescence Intensity (Geometric Mean)” value was determined as 15.4 in [7]; 15.7 in [8]; 40.4 in experiment [9]; 27.6 in experiment [10]; 12.9 in experiment [11]; 30.8 in experiment [12]. For the same molecule, the “Fluorescence Intensity (Geometric Mean)” value in experiment [13] worked out at 27.7; in experiment [14], 7.3; in experiment [15], 28.9; in [16], 28.8; in [17], 8.8; in experiment [18] it was 22.1. In addition, the “Fluorescence Intensity (Geometric Mean)” value in experiment [19] amounted to 11; in experiment [20], 16.1; in [21], 11.2; in [22], 1.1. Moreover, the binding result with SdrG is recorded as “no binding”.

B2: Chimeric monoclonal antibody 12-9 (antibody, V domains shown)
VH: B1 VH
VL: B1 VL
notes: also called Chimeric 12-9; recombinant chimeric 12-9
In the case of B2, in experiment [23], the binding result was “binds”.
